Holding throughout (experiment): PEPSCAN ELISA, looped 15-mer, 10 ug/ml
In general terms: In an ELISA, binding on a coated surface is turned into a signal by an enzyme label.

For experiment [1], the target named is looped peptide … (rabies virus strain ERA).
For experiment [2] the target is unchanged. The source holds these as a separate data set.
The target is the same in experiment [3]. This is another data set of the same source.
For experiment [4] the target is unchanged. This is another data set of the same source.
The target in experiment [5] is looped peptide […] (rabies virus strain ERA).
Experiment [6] has the same target. This is another data set of the same source.
Experiment [7] addresses looped peptide … (rabies virus strain ERA). The source holds these as a separate data set.
The target is the same in experiment [8]. The source holds these as a separate data set.
Experiment [9] shares this target. The source holds these as a separate data set.
Experiment [10] deals with looped peptide […] (rabies virus strain ERA). This is another data set of the same source.
For experiment [11] the target is unchanged. The source holds these as a separate data set.
Experiment [12] has as its target looped peptide … (rabies virus strain ERA). The source holds these as a separate data set.
Experiment [13] concerns the target looped peptide […] (rabies virus strain ERA). The source holds these as a separate data set.
Experiment [14] addresses looped peptide … (rabies virus strain ERA). This is another data set of the same source.
In experiment [15] the target is looped peptide […] (rabies virus strain ERA). The source holds these as a separate data set.

B1: human monoclonal antibody CRJB (antibody, V domains shown)
VH: QITLKETGPTLVKPTQTLTLTCTFSGFSLSTSGVGVGWIRQPPGKALEWVTLIYWDDDKRYSPSLENRVTIRKDTSKNQVALTMTNMDPLDTGTYYCAHRQHISSFPWFDSWGQGTLVTVSS
VL: SYVLTQPPSVSVAPGKTARINCGGNNIEYRSVHWYQQKSGQAPVAVIYDNSDRPSGIPERFSGSKSGNTATLTISRVEAGDEADYYCQVWDISSDVVFGGGTKLTVLG
In the case of B1, the OD value in experiment [1] stood at 63; in [2] it was 72; in [3] it was 92; in experiment [4] it was 76; in experiment [5], 156; in experiment [6], 132. In addition, the OD value in experiment [7] amounted to 60; in experiment [8], 68; in experiment [9], 79; in experiment [10], 71; in experiment [11], 186; in experiment [12], 74. For the same molecule, the OD value in [13] was determined as 87; in experiment [14], 79; in [15], 206.

Source of the values: patent publication US20060263802A1 (CRUCELL HOLLAND B V, published 2006).
